{
  "source": "patent US10428327B2",
  "about": "“Compositions and methods for enhancing homologous recombination” (LIFE TECHNOLOGIES CORPORATION, priority 2016, dated 2019)",
  "molecules": {"B1": {"name": "30-5′: dsDNA donor with 30 nucleotide 5′ overhangs, annealed SEQ ID 85 and 86 (nucleic acid)", "chain 1": "dG*dT*dGdCdCdCdTdGdGdCdCdCdAdCdCdCdTdCdGdTdGdAdCdCdAdCdCdCdTdGdAdCdCdGdAdCdTdAdCdAdAdAdGdAdCdGdAdTdGdAdCdGdAdCdAdAdGdAdAdTdTdC*dT*dT", "chain 2": "dG*dT*dGdGdTdCdGdGdGdGdTdAdGdCdGdGdCdTdGdAdAdGdCdAdCdTdGdCdAdCdGdCdCdGdTdAdAdGdAdAdTdTdCdTdTdGdTdCdGdTdCdAdTdCdGdTdCdTdTdTdGdTdAdG*dT*dC", "modifications": "Two annealed DNA oligonucleotides with 5' overhangs, further chemistry not fully specified"}, "B2": {"name": "15-3′: dsDNA donor with 15 nucleotide 3′ overhangs, annealed SEQ ID 83 and 84 (nucleic acid)", "chain 1": "dG*dA*dCdTdAdCdAdAdAdGdAdCdGdAdTdGdAdCdGdAdCdAdAdGdAdAdTdTdCdTdTdAdCdGdGdCdGdTdGdCdAdGdT*dG*dC", "chain 2": "dA*dA*dGdAdAdTdTdCdTdTdGdTdCdGdTdCdAdTdCdGdTdCdTdTdTdGdTdAdGdTdCdGdGdTdCdAdGdGdGdTdGdGdTdC*dA*dC", "modifications": "further chemistry not fully specified"}},
  "key": {"rabbit embryos": {"tested_on": "rabbit embryos", "conditions": "in vitro and in vivo; cited from earlier work"}, "hESCs": {"tested_on": "hESCs", "conditions": "synchronization at M phase prior to nucleofection; cited from earlier work"}, "HEK293T cells": {"tested_on": "HEK293T cells", "conditions": "synchronization at M phase prior to nucleofection; cited from earlier work"}, "DNA ligase IV": {"molecular_target": "T1, DNA ligase IV (Homo sapiens, UniProt P49917)", "T1 sequence (P49917 1-911)": "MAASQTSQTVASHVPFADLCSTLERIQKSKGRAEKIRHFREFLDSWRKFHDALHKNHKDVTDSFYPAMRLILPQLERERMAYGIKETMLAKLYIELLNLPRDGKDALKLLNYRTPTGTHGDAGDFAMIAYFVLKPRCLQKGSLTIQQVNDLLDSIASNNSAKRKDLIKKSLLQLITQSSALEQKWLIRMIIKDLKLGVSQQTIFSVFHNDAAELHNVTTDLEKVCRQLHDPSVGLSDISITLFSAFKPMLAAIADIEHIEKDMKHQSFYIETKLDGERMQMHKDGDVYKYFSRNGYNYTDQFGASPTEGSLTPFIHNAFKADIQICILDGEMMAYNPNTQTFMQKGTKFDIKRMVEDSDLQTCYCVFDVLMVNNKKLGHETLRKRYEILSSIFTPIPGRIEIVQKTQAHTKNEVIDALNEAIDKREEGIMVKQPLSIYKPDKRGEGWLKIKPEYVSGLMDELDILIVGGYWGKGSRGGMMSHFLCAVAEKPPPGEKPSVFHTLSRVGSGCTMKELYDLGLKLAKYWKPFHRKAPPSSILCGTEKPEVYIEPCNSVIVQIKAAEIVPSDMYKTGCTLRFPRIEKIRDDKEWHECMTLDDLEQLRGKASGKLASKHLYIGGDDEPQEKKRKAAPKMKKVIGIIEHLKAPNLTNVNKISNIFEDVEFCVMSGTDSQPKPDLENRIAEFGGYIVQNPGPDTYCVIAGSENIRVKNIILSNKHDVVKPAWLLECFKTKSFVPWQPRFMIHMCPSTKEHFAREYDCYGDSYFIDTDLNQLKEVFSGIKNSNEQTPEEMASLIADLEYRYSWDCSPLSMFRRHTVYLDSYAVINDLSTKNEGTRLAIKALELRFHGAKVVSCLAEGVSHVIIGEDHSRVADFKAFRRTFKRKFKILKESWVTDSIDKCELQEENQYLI", "conditions": "cited from earlier work"}, "[1]": {"tested_on": "eBFP locus in HEK293 cells expressing eBFP", "test": "Genomic cleavage and detection assay at eBFP locus after Cas9 RNP and FLAG/EcoRI donor", "type": "cell-based", "conditions": "sequential delivery, 48 hours post transfection", "text": "(§1) FIG. 11. Insertion of a FLAG tag along with an EcoRI site using dsDNA donor with single-stranded overhangs. (A) Various donor DNA molecules containing a 30-base FLAG tag along with an EcoRI site were designed and synthesized, including single-stranded DNA donor (ssDNA), blunt-end dsDNA donor (blunt), dsDNA donor with 5′ overhang (5′), dsDNA donor with 3′ overhang (3′). The length of overhangs varied from 6 nucleotides (6), 15 nucleotides (15) to 30 nucleotides (30). The 3′ and 5′ ends of the oligonucleotides harbored two consecutive phosphorothioate-modified bases (Table 4). The short dsDNA donors with and without overhangs were prepared by annealing two short DNA oligonucleotides. […] At 48 hours post transfection, the eBFP locus was PCR-amplified. The resulting PCR fragments were analyzed by the genomic cleavage and detection assays to determine the percentage of Indel or subjected to restriction digestion with EcoRI to determine the percentage of digestion. (B) Length of 3′ overhang. […] Alternatively, a dsDNA donor with 30-base 3′ overhang but without phosphorothioate modification (30-3′n) was used. The percentage of digestion with EcoRI was determined at 48 hours post transfection. (C) Dose effect. […] The eBFP loci were PCR-amplified. The resulting PCR fragments were analyzed by EcoRI digest. (D) Sequencing verification. The PCR fragments were cloned into E. coli and 192 clones were randomly picked for sequencing. The relative percentage of wild type (wt), NHEJ, and HDR clones derived from either ssDNA donor (ssDNA) or dsDNA with 3′ overhangs (3′ overhang) was plotted. The white rectangles represented the population of clones that contained the insert but with a point mutation. Examples of edited clones were shown in (E) (not representing the actual percentages of NHEJ and HDR). The underlined sequences represented the FLAG tag along with an RI site. FIG. 11 discloses SEQ ID NOs: 15-24, respectively, from top to bottom.\nThe genomic cleavage efficiency was measured by GENEART® Genomic Cleavage Detection kit according to manufacturer's instructions. The primer sequences for PCR amplification of each genomic locus are described in Table 4. Cells were analyzed at 48 to 72 hours post transfection. The cleavage efficiencies were calculated based on the relative agarose gel band intensity, which were quantified using an […]® gel documentation system running […]®, Version 3.4.0.0. ProteinSimple (San Jose, Calif., USA).\nTo extend this concept, we hypothesized that a dsDNA donor harboring single-stranded overhangs would facilitate HDR to higher levels than with blunt ends. To test this hypothesis, we designed and generated a series of donor molecules with either blunt end, 5′ end protrusion or 3′ end protrusion by annealing two small single-stranded oligonucleotides. A single-stranded DNA donor was used as a control. The 5′ and 3′ ends of oligonucleotides were protected with two consecutive phosphorothioate-modified bases (Table 3). For proof of concept, we inserted a 30 nucleotide FLAG epitope tag along with an EcoRI site into the BFP gene stably expressed in HEK293 cells. The gRNA was designed to target the top DNA strand. The length of single-stranded overhangs varied from 6 nucleotides to 30 nucleotides. The oligonucleotides were denatured and re-annealed prior to transfection forming the structures described in FIG. 11A. […] Co-delivery of Cas9 RNPs and donor DNA gave lower HDR efficiencies. At 48 hours post transfection, the genomic locus was PCR-amplified and the editing efficiencies were determined using a GCD assay. […] When the PCR fragments were subjected to restriction digestion with EcoRI to identify properly inserted constructs, only the donor DNA molecules containing 30-base single-stranded overhangs at the 3′ ends produced the expected digested fragments (30-3′ in FIG. 11, panel A). […]"}, "[2]": {"tested_on": "eBFP locus in HEK293 cells expressing eBFP", "test": "EcoRI restriction digestion of PCR-amplified eBFP locus (FLAG tag/EcoRI insertion)", "type": "cell-based", "conditions": "48 hours", "text": "as §1\nTo create homologous recombination (HR) assays, a series of gRNAs flanking the insertion site within the EmGFP gene were designed and synthesized (Table 4). Each individual gRNA was combined with GENEART™ […]™ Cas9 Nuclease to form the Cas9 protein/gRNA ribonucleoprotein complexes (Cas9 RNPs). The Cas9 RNPs were then used to transfect cells via NEON® electroporation. The genomic cleavage efficiency was then evaluated using the GENEART® Genomic Cleavage Detection kit at 48 hours post transfection. The gRNAs with highest editing efficiencies and also in close proximity to the insertion site were selected for the subsequent HR assays. For donor design of a single-stranded oligonucleotide, typically the mutation site was positioned at the center flanked by 30 to 50 nucleotides on each side. For asymmetric donor design, 30 nucleotides were placed on either the left or right arm and then 50 or 67 nucleotides on the right or left arm respectively, in both PAM and non-PAM strands. For design of a dsDNA oligonucleotide with single-stranded overhangs, the insertion element was overlapped in the center flanked by various lengths of ssDNA oligonucleotide on each side. By annealing two single-stranded oligonucleotides at 95° C. for 3 minutes, dsDNA donor molecules with either a 5′ protrusion or a 3′ protrusion were generated. To measure homologous recombination efficiency, the donor DNA was either co-transfected with Cas9 RNPs or delivered sequentially into cells via electroporation. At 48 hours post transfection, the gain of EmGFP function in reporter cell lines was determined by flow cytometric analysis with an Attune® NxT Acoustic Focusing Cytometer (Thermo Fisher Scientific). Alternatively, the genomic loci were PCR-amplified using the corresponding primers and then subjected to GENEART® Genomic Cleavage Detection assay or restriction digestion. The resulting PCR products were also subjected to TOPO cloning. Typically, 96 colonies were randomly picked for sequencing. […]"}, "[3]": {"conditions": "FIG. 11A, donor configurations, sequential delivery"}},
  "note": "Oligonucleotides are written 5' to 3', each unit as a sugar letter and its base; * is a phosphorothioate linkage, no mark a phosphodiester; rarer units and linkages stand in square brackets, end groups in braces. Plain capitals give the bases only. d = 2'-deoxy (DNA)",
  "data": [
    {"molecule": "O=C(Nc1ccc(Br)cc1)c1ccc(Br)c(S(=O)(=O)NCc2ccccc2)c1", "note": "[RS-1]", "values": [
      {"measurement": "increased knock-in efficiency", "setting": "rabbit embryos", "value": "2-5 fold"}
    ]},
    {"molecule": "COC(=O)Nc1nc2ccc(C(=O)c3cccs3)cc2[nH]1", "note": "[nocodazole]", "values": [
      {"measurement": "HDR", "setting": "hESCs", "value": "≤ 1.6", "unit": "%"},
      {"measurement": "HDR", "setting": "HEK293T cells", "value": "up to 38%"}
    ]},
    {"molecule": "Scr7", "values": [
      {"measurement": "increase in HDR efficiency", "setting": "DNA ligase IV", "value": "up to 19 fold"}
    ]},
    {"molecule": "B1", "values": [
      {"measurement": "Avg (% Indels)", "setting": "[1]", "value": 80.00, "unit": "%"},
      {"measurement": "Avg (% digestion)", "setting": "[2]; [3]", "value": 1.00, "unit": "%"}
    ]},
    {"molecule": "B2", "values": [
      {"measurement": "Avg (% Indels)", "setting": "[1]", "value": 81.00, "unit": "%"},
      {"measurement": "Avg (% digestion)", "setting": "[2]; [3]", "value": 0.50, "unit": "%"},
      {"measurement": "Avg (% digestion)", "setting": "[2]; FIG. 11B, length of 3′ overhang", "value": 0.8, "unit": "%"}
    ]}
  ]
}
